This note sets out measurements from patent US20230139516.

The target of this data set is 6×His-c-Myc, P01106.
Chain of 6×His-c-Myc, P01106 (P01106 16-454): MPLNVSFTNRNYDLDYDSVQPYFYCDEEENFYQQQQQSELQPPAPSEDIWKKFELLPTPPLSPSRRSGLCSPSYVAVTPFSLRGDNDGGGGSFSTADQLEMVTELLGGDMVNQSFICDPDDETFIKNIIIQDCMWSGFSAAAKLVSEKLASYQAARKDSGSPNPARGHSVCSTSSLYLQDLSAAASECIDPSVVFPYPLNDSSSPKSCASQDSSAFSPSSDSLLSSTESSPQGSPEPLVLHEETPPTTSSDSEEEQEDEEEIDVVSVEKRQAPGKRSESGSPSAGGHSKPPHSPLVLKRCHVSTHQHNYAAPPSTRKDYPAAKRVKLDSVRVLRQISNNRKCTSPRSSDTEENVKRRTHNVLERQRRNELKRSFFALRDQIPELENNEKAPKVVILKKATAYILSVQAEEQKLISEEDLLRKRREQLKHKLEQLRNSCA

B1: GST-MKK7 (protein)
chain: MAASSLEQKLSRLEAKLKQENREARRRIDLNLDISPQRPRPTLQLPLANDGGSRSPSSESSPQHPTPPARPRHMLGLPSTLFTPRSMESIEIDQKLQEIMKQTGYLTIGGQRYQAEINDLENLGEMGSGTCGQVWKMRFRKTGHVIAVKQMRRSGNKEENKRILMDLDVVLKSHDCPYIVQCFGTFITNTDVFIAMELMGTCAEKLKKRMQGPIPERILGKMTVAIVKALYYLKEKHGVIHRDVKPSNILLDERGQIKLCDFGISGRLVDSKAKTRSAGCAAYMAPERIDPPDPTKPDYDIRADVWSLGISLVELATGQFPYKNCKTDFEVLTKVLQEEPPLLPGHMGFSGDFQSFVKDCLTKDHRKRPKYNKLLEHSFIKRYETLEVDVASWFKDVMAKTESPRTSGVLSQPHLPFFR
Turning to B1, the “in vitro kinase assay, immunoblot for p-c-Myc-Ser62” value is “recombinant MKK7 could directly phosphorylate c-Myc-Ser62”.
